How the values were obtained:
[1] = biological target: T1, full-length HTm4 protein (human, recombinant, His tag cleaved with Factor Xa)
T1 chain: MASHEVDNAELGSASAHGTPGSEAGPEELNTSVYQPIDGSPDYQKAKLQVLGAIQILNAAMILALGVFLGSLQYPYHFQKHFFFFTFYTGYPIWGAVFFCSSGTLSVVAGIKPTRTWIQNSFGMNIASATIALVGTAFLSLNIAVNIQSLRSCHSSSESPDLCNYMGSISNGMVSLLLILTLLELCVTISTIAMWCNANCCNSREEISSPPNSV

[2] = biological target: cdk2.cyclin A complex (recombinant, Upstate), P24941

B1: KAP (wild-type, full-length KAP protein) (protein)
chain: MKPPSSIQTSEFDSSDEEPIEDEQTPIHISWLSLSRVNCSQFLGLCALPGCKFKDVRRNVQKDTEELKSCGIQDIFVFCTRGELSKYRVPNLLDLYQQCGIITHHHPIADGGTPDIASCCEIMEELTTCLKNYRKTLIHCYGGLGRSCLVAACLLLYLSDTISPEQAIDSLRDLRGSGAIQTIKQYNYLHEFRDKLAAHLSSRDSQSRSVSR
Km of KAP phosphatase activity in the presence of HTm4 [1]: A parallel increase in Km (to 8.33 µM) was also observed | Vmax of KAP phosphatase activity in the presence of HTm4 [1]: the Vmax of KAP phosphatase activity increased dramatically to 17.5 nM/min | dephosphorylating activity of KAP toward phosphorylated cdk2 [1]: HTm4 increases the dephosphorylating activity of KAP toward phosphorylated cdk2 by more than 6-fold | Km of KAP phosphatase activity in the absence of HTm4 (substrate active cdk2.cyclin A) [2]: Vmax and Km for the samples in the presence and absence of HTm4 are 17.5, 1.30 nM/min, and 8.33, 2.68 µM, respectively | Vmax of KAP phosphatase activity in the absence of HTm4 (substrate active cdk2.cyclin A) [2]: Vmax and Km for the samples in the presence and absence of HTm4 are 17.5, 1.30 nM/min, and 8.33, 2.68 µM, respectively

Source: patent US20080153749
